Measured values as given in patent US12305177B2, “Methods and platforms for sustainable high yield terpenoid production” (Purdue Research Foundation, priority 2019, dated 2025).

Key:
[1] = substrate: CC(C)=CCC/C(C)=C/CC/C(C)=C/CO[P@@](=O)(O)OP(=O)(O)O; assay: purified protein, by the assay type; conditions: 100 mM TAPS pH 8.5, 10 mM MgCl2, 37° C., means ± SD, n = 3, pH 8.5, 37.0 °C
[2] = substrate: CC(C)=CCOP(=O)(O)OP(=O)(O)O; assay: purified protein, by the assay type; conditions: 100 mM TAPS pH 8.5, 10 mM MgCl2, 37° C., means ± SD, n = 3, pH 8.5, 37.0 °C
[3] = substrate: C=C(C)CCOP(=O)(O)O; assay: purified protein, by the assay type; conditions: other: substrate of N. tabacum IPK; pH 7.5, 30° C.; pH 7.5; 30.0 °C
[4] = substrate: CC(C)=CCC/C(C)=C/COP(=O)(O)O; assay: NtIPK kinetics, lactate dehydrogenase/pyruvate kinase coupled assay; assay type: biochemical; conditions: other: substrate of N. tabacum IPK, pH 7.5, 30° C.
[5] = substrate: CC(C)=CCOP(=O)(O)O; assay: as above; assay type: biochemical; conditions: other: substrate of N. tabacum IPK, pH 7.5, 30° C.

B1: A. thaliana Nudx1 (Arabidopsis thaliana) (protein)
chain: MSTGEAIPRVAVVVFILNGNSILLGRRRSSIGNSTFALPGGHLEFGESFEECAAREVMEETGLKIEKMKLLTVTNNVFKEAPTPSHYVSVSIRAVLVDPSQEPKNMEPEKCEGWDWYDWENLPKPLFWPLEKLFGSGFNPFTHGGGD
Km ([1]; other: substrate of AtNudx1): 8.7 ± 1.6 µM
kcat ([1]; other: substrate of AtNudx1): 1.35 ± 0.06 s⁻¹
kcat/Km ([1]; other: substrate of AtNudx1): 1.6 × 10^5 ± 0.3 M^−1 s^−1
Km ([2]; other: substrate of AtNudx1): 10.7 ± 1.8 µM
kcat ([2]; other: substrate of AtNudx1): 1.7 ± 0.07 s⁻¹
kcat/Km ([2]; other: substrate of AtNudx1): 1.6 × 10^5 ± 0.3 M^−1 s^−1

B2: A. thaliana Nudx3 (Arabidopsis thaliana) (protein)
chain: MAEEHFDVLTKSGEKTGVSKPRGEVHRDGDYHRAVHVWIFVETTQQLLLQLRSDDKDSWPGQWDISSAGHISAGDTSLLSAQRELEEELGVKLPKDAFEKIFVFLQECVTNDGKFINNEFNDVYLVTILHPIPLEAFTLQKEEVSAVKYVPYEEYRNFLSKEDPAYVPYDVNGEYGKLFDIIRQRCQVNTEARSLSLQKQLQRYSPVTLEAKLTELSEADQKALGLIVKAAKIMDDIFYEQVWNSNPALRDWLKDHANASKLDKLKWDYFTINKSPWSSLDENEAFLSTADSAVKLLPGATKAIAGWKGLEYRAAFPVTKPPGANFYPPDMDKMEFTLWLNGLTEEQKHAATGFFSVIKRRSEANLDASDHLASSTKKLPDSNSDLYSIPYSEIYRPFLKKASEFLQKAGDLVSSPSLKKLLHSKAEAFLSNEYYESDIAWMDLDSKLDITIGPYETYEDEIFGYKATFETFIGIRDDKATADLKLFGDNLKLLEDNLPLESVYKSTDVSAAPIRVIQLIYNSGDVKGPQTVAYNLPNDEKIVKDRGTSMVMLKNVQEAKFEHILKPIAEITISKEQRGLVDFDSFFTHTICHECCHGIGPHTITLPGGQTSTVRKELQEVHSAMEEAKADIVGLWALKFLITKGLLSKSMVESMYVSFLAGCFRSIRFGLTEAHGKGQALQFNYLYEKGAFVFHEDSTFSVDFAKIEGAVESLSHEILTIQGKGDKNAATLLLNKYCTITGPLKTALENLERVKVPVDISPTFPLAEALMN
Km ([1]; other: substrate of AtNudx3): 58 ± 10 µM
kcat ([1]; other: substrate of AtNudx3): 3.3 ± 0.3 s⁻¹
kcat/Km ([1]; other: substrate of AtNudx3): 5.7 × 10^4 ± 0.5 M^−1 s^−1
Km ([2]; other: substrate of AtNudx3): 44 ± 8 µM
kcat ([2]; other: substrate of AtNudx3): 7.1 ± 0.3 s⁻¹
kcat/Km ([2]; other: substrate of AtNudx3): 1.6 × 10^5 ± 0.3 M^−1 s^−1

B3: N. tabacum IPK (Nicotiana tabacum) (protein)
chain: MEQNKASAPVPPTKRVRCIVKLGGAAITCKNKLETIDEENLTEVSSQLRQALIPNSDSAKILGMDWSKRPGQSEPPSFVDEFSDQPVADSESFIVVHGAGSFGHFQASKSGVHKGGLSRPLVKAGFVATRISVTSLNLEIVRALAREGIPSIGMSPFSCGWSTCQRNMTEADISMVIKAIDAGFIPVLHGDAVLDTLQECTILSGDVIIRHLAAELKPEFVVFLTDVLGVYDRPPVEPGAVLIREIAVREDGSWSVVKPRLEDTSKPVEFTVAAHDTTGGMVTKITEAAMIAKLGIDVYITKVGAGRNGPLSESPEWNLERQHT
Km [3]: 4.0 ± 1.5 µM
kcat [3]: 0.93 s⁻¹
kcat/Km [3]: 230000 M⁻¹ s⁻¹
Km [4]: 100 ± 60 µM
kcat [4]: 0.0017 ± 0.0002 s⁻¹
kcat/Km [4]: 17 M⁻¹ s⁻¹
Km [5]: 8.5 ± 2.3 µM
kcat [5]: 1.2 ± 0.06 s⁻¹
kcat/Km [5]: 140000 M⁻¹ s⁻¹
